Here are results for two molecules from article PMC11749891 (Nature structural & molecular biology, 2022).

* marks the point of attachment. Biotin = O=C1N[C@H]2[C@H](CS[C@H]2CCCCC(=O)*)N1; Ahx = NCCCCCC(=O)O

For assay [1], the target named is T1, Recombinant GFP-tagged Sov core NTD (aa 14–90), NTD Δ-SIMs (D. melanogaster, UniProt Q9W3W6 14-90).
T1 sequence (looked up): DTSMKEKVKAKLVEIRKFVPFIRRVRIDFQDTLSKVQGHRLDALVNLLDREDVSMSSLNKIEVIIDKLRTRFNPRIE
The assay is described as follows: pull-down.

The target of assay [2] is T2, C-terminal His tagged Sov NTD (aa 14–90) (D. melanogaster, UniProt Q9W3W6 14-90).
T2 sequence (looked up): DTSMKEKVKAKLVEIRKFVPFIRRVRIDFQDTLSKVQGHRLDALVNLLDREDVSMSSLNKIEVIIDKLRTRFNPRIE
Briefly: ITC. In general terms: ITC needs no label: the signal is the heat of the interaction.

B1: Panx LxxLL peptide (aa 82–108), wildtype, biotinylated (peptide, UniProt Q9W2H9 82-108, looked up)
peptide: {Biotin-Ahx}-KMEPKIKEDADNAMLDSLLADPFENNS-NH2
SMILES: CC[C@H](C)[C@H](NC(=O)[C@H](CCCCN)NC(=O)[C@@H]1CCCN1C(=O)[C@H](CCC(=O)O)NC(=O)[C@H](CCSC)NC(=O)[C@H](CCCCN)NC(=O)CCCCCNC(=O)CCCC[C@@H]1SC[C@@H]2NC(=O)N[C@@H]21)C(=O)N[C@@H](CCCCN)C(=O)N[C@@H](CCC(=O)O)C(=O)N[C@@H](CC(=O)O)C(=O)N[C@@H](C)C(=O)N[C@@H](CC(=O)O)C(=O)N[C@@H](CC(N)=O)C(=O)N[C@@H](C)C(=O)N[C@@H](CCSC)C(=O)N[C@@H](CC(C)C)C(=O)N[C@@H](CC(=O)O)C(=O)N[C@@H](CO)C(=O)N[C@@H](CC(C)C)C(=O)N[C@@H](CC(C)C)C(=O)N[C@@H](C)C(=O)N[C@@H](CC(=O)O)C(=O)N1CCC[C@H]1C(=O)N[C@@H](Cc1ccccc1)C(=O)N[C@@H](CCC(=O)O)C(=O)N[C@@H](CC(N)=O)C(=O)N[C@@H](CC(N)=O)C(=O)N[C@@H](CO)C(N)=O
B1: the binding result in assay [1] is “binds”.

B2: His-SUMO tagged Panx LxxLL peptide (aa 82–108), wildtype (peptide, UniProt Q9W2H9 82-108, looked up)
chain: KMEPKIKEDADNAMLDSLLADPFENNS
Consider B2, for which the “stoichiometry N” value in assay [2] worked out at 1.05 ± 0.03.

One may read the stoichiometry N as the number of molecules, sites or subunits per partner or assembly.
